Results published in the DeepSol protein solubility set.

Assay: soluble on expression in E. coli; label from the status in PepcDB or PDB records

Row | Sequence | soluble on expression in E. coli
1 | MSLKEAIVERIVNKLNENQKEKIGVELPSGKRIPEFPVSHLIRFKTWKSLDYVLKDPEMGFGEGYMNGDIEVEGDLEEVIKRGMTLFKDTRKFEKLFGILRHVPLFRTIRDERNVKHHYDLGNDFYRLWLDKSMTYSCAFFEDPSMSIDEAQSLKRRIIYEKLQLKEGDTLLDIGCGWGSIILESAELYNVKSVGITLSDNQYEYVKEEIKKRGLQDKVEVYKLHYVDLPKLGRKFNKVVSVGMFEHVGKENYETFFNTVYKVMEEGGLFLLHTIGKLHPDTQSRWIRKYIFPGGYLPSISEIVESFRDMDFTLIDFDNWRMHYYWTLKKWKERFYENLDKIRNMFDDRFIRMWELYLTASAVSFLIGSNYVFQILLSKGVKDDYPVIKREFSGVLFKEGHHHHHH | not soluble
2 | MADVALRITETVARLQKELKCGICCSTYKDPILSTCFHIFCRSCINACFERKRKVQCPICRSVLDKRSCRDTYQITMAVQNYLKLSEAFKKDIENMNTFKSLPPEKMFMESQMPLDITIIPENDGKRCAPDFAIPFLPVRRKRPSRPQPPSAFAEEPAEPVEPPEPATKQPVELQSRVFPLEKLKKDVETSTETYKISREELKNVDIEEYINTLRENSTEIDEIDALFQLMPTMRQFLRNNINQLMEKFHVAPPKKSEKPANRRVSFASSQDLENIKIMTASESLETPPEPIQKLAQKPEVFKSTQNLIDLNLNTAVKKPVVVASDDDEVVEDSEGELQIDEDDLANVTCATSVRNIGKSLCAEYIRGVRQICRICRLPSSANFKKVDLPNLPSSANFEICRTRQKFDSTISTKTTDFFAKNSQLIELVQQCGGEILSCYENLSPEKLYIIFSKHSKAIEESKNIENLYKCDVVTMEWVLDSISEYLILPTQPYKAVDSIGCLQD | not soluble
3 | GSMAGGVDGPIGIPFPDHSSDILSGLNEQRTQGLLCDVVILVEGREFPTHRSVLAACSQYFKKLFTSGAVVDQQNVYEIDFVSAEALTALMDFAYTATLTVSTANVGDILSAARLLEIPAVSHVCADLLDRQI | soluble
4 | MSQFFYIHPDNPQQRLINQAVEIVRKGGVIVYPTDSGYALGCKIEDKNAMERICRIRQLPDGHNFTLMCRDLSELSTYSFVDNVAFRLMKNNTPGNYTFILKGTKEVPRRLLQEKRKTIGMRVPSNPIAQALLEALGEPMLSTSLMLPGSEFTESDPEEIKDRLEKQVDLIIHGGYLGQKPTTVIDLTDDTPVVVREGVGDVKPFL | soluble
5 | MGSDKIHHHHHHMAKYEQLAQELKTRIAQGVWQAGDKLPSLRQTVADSGLSLMTVLNAYQLLESQGVISAQAKSGYLVAPKPELIARQGEAFRYPERQKPIYLSDSVDINEFVFNVLQASKQADIVPFGSGFPDPSLFPQQALARSLVKVTRHMSPSFAADNLPPGNAGLRKAISQRYAKLGMSISPDEIIITSGAMEALNLSLATLTQAGDWVVIESPTFYGAMQAIERLKLKAIAVATDPQQGIDLEALAEVLKTYPVKACWLMSQHQNPLGCSLSDTKKQALYQLLNEHKVSLIEDDVYQELYVDSSAPRSVKAFDTEGRVLHCGSFSKSLIAGYRVGWVAAGCHAPQLQRLQVMSTLSTSAPMQLAIADFIQSAQYERHLKQLRKKLASRKLAMYQLLCAHLPESVGVNFAQGGYFLWLALPAHMDATQIYYQAIERGISIAPGNLFSNQVEFRHFMRLNASYECSSEIVSAVMVLAELIRNYSRRS | not soluble
6 | MSLTELEFVTEHRRYLHKHPELSLHEYETTKYIAHFLDDLGVPYERPLDTGVIAYLSGNSTHTIAYRADIDALPIYEENNVSYRSEVDHVMHACGHDGHTTALMLFVKRCKNLADKGELPQNIVFIFQPAEETGGGANRLIRAGAFEKYPIEAVFGIHVMPFENEGRVVIRDEEITASATEYRFYLHGLSSHVADKEQGHSCGEALQHVLTQVGQIQQYHLNGLKRNIVHMGHFEAGEAINTVPSNGYLEGTIRTYDVKDLEIVKQQMTKISESVKLLFNVECEVKFEEGYPPTFNDPQLRKHVENGLVNAEFEVIDKPTPYLFGEDFSFYSQIAPSYFVFVGVRDEAKGYVTGLHTSHLNFNESILIRIADYYEQILKSYSEVQSEGHHHHHH | soluble
7 | MGSDKIHHHHHHMKIGVLSQFPELYSTRRLVEACESRGHEAWVINPINCYMNINSVKPSIHLEGEEVPMFDAIIPRIHASVTFYGCAVVRQFEMMGVFAANDSISIARSRDKLRALQLLSRKGIGMPVTGFANKPNNIPDLINMVGGAPLVIKLLEGTQGIGVVLAETRKAAESVIEAFLGLKANIMVQEYIKEANGSDIRCFVVGDKVVAAMRRQGPEGDFRSNLHLGGSAEPVKITPQERKSAVAAAKAMGLVVAGVDILRSARGPLVLEVNSAPGIEGIEQATGIKVAEPIVEYIEKVVAARRANHQVIA | not soluble
8 | MHENMKDSLKRPLQDLRISVIDRCNFRCTYCMPAEVFGPDYAFLQEECLLTFDEIERLARLFISMGVNKIRLTGGEPLLRKDLPKLIARLAKLEGLKDIGLTTNGIHLAKQAKALKEAGLKRVNISLDAIEDRVFQKINGRHVSTKPVLKGIEAAKEAGLEVKVNMVVKKGMNDSQILPMAQYFKEQEIQLRFIEFMDVGSTNGWNFEQVVTKEQLIEKINRVYPIEPVKPRYFGEVAKLYRYVGNDAEVGFITSVSESFCSSCTRARISADGKFYTCLFGEKGTDLRSLLRENISDASLLKILQHTWEFRTDRYSDERTAESTNKRQKVEMSYIGG | not soluble
9 | MSERLFVLSQHILPKLALTRLAGRFADWKGGGITTAAIRRFIARYNVDMGEAADSDPAAYATFNDFFTRALKPGVRPVADARLVCPVDGAVSQLGAIDSGRIFQAKGRDYSATALLAGDADLAARFADGHFATIYLSPRDYHRIHMPCAGRLLEMTYVPGDLYSVNPATARGVDRLFARNERVVCVFEDEQSQPFVMVLVGATIVGSMATVWHGVVNPPRRPAVEKWDYRGQDIRLAKGEEMGRFLLGSTVVLLYPAGPLKFNPQWQAASPVRMGEAMASLEHHHHHH | not soluble
10 | MGVYPPSEDSFLIIEYASCSGKAIEIGCGTGIVSICFLKRGCDIEAVDISDLAVECAKDNASRNGLTLKVYRSDLFSGVSGTYDTILFNAPYIPVEGEDASWSGGRNLEVVSRFLGQAREHLSASGQIYIVLSDLTDNEGMFRMMGYDYFIIKKISFEFEAIVLYKLTLKALEHHHHHH | not soluble
11 | MGSDKIHHHHHHMRAALAQGCDPMVLTGEVWPKWRIWTRDADRFLDDAPLNKLTAPAGIPLSSFRAATLKSVAERVSKGPLPDRAVWPWILALGARNTKRRSGLQYCPDCLRDDRIPYYRLQWRLAWHVGCEHHHCSLLDRCPHCRAPLEPHRLHAEDGHMAVCATCRGDLRDVGAITPCSDDAMAFQDAGDEAIRHGSGQFMAHPTETDAWFAGASFLSALLRRANRSDAEALHVFLERMGVAVPELPLNPGTGVELLGTAERHLLLGALWKLMRTDLADVSKYLQESGITRQGFVSKGERMPDLFAETFAQLPDNARGPRKQAVRDPGQPRPRHEVMRMWRRLQRKLEMSQR | not soluble
12 | MATKNEELPIIDLAATEGYIVDDTDEDDPVLLAPDGTPIDTWRENYPYEERMTRDEYEKTKRALQIELLKWQNWTKDTGQRHIILFEGRDAAGKGGTIKRFNEHLNPRGARTVALEKPSPRESTSWYFQRYIEHFPCAGEIVFFDRSWYNRSGVERVMGFCTESQHAEFLREVPMLENMILGSGISLTKFWFSVTQKEQRTRFAIRQVDPVRQWKLSPMDLASLDRWDDYTRAKEEQFRYTDTDEAPWITIRSNDKKRARINAMRYILSKFEYSNKDHDLVGEPDPLIVMRGRDRIGD | not soluble
13 | MNRLHRWNWLVLSAALVTLPFTTPTQAAGVSVSQGSSASLSQAELEQMLAPIALYPDSLLSHILIASTYPLELVQAQRWLEDHPKLSVEQVMSRTEDKGWDPSVKALMAFPNVLQKMSEDLDWTQRLGEAFLANEGQVMDGIQSLRQQADKANSLANMDNMAVTRANNQIIIEPVRREVVYVPYYDPRVVYGTWRWGVAYPPVYWQFGGYVGNPYRPSHSYFYWSPGIHISFNYFFSSFHWHRHKVVVIDHHHSHHYRPRERYSVSHGAQPWKHKPEHRRGVAYHHPVVKERYYSDSKYRGRDSHSSGSGQHFTSQYAKSREHQDTRDNRDNQRDDKRHDKDRGNQYSRERTPNLQHTQAELKERRATPMDSSQTHRENYQREHRQKERNDNGRHDNQVRQNQAKTMREQTNDTWQRQYQQREYQSSDQQPRHVETRAQPQRHEARPEVRRPEPQRIEQPRQAQPRQREEVRTRPSESRQHTQCGA | not soluble
14 | MGGHHHHHHGENLYFQGISSETGEMGILWEFDPIINKWIRLSMKLKVERKPFAEGALREAYHTVSLGVGTDENYPLGTTTKLFPPIEMISPISKNNEAMTQLKNGTKFVLKLYKKEAEQQASRELYFEDVKMQMVCRDWGNKFNQKKPPKKIEFLMSWVVELIDRSPSSNGQPILCSIEPLLVGEFKKNNSNYGAVLTNRSTPQAFSHFTYELSNKQMIVVDIQGVDDLYTDPQIHTPDGKGFGLGNLGKAGINKFITTHKCNAVCALLDLDVKLGGVLSGNNKKQLQQGTMVMPDILPELMPSDNT | soluble
15 | MFLRLFKYLWPERYLPEIPAQDPFDENPPPCGPGRVGVLLVNLGTPDEPTRGAIRRYLGEFLSDPRVIEIPRYLWMPILHGLVLAMRPKKLAPRYAGIWMEEGSPLLVYSQRQAAGVRQGLAARGVHAEVELAMRYGKPSIPAAITALRERGCDHILAVPLYPQYAASTTATVVDAVTRHAGRLRDQPALRFVKRFHNDPAYVEAQAGRIAEFWQAHGRPQKLVMSFHGLPRYSIELGDPYYRDCLDTARLLRERLGLREDEVEVTFQSRFGSARWLEPYTEPTLAELARQGVTEVDVVCPGFVADCLETLEEISQECRDAFVAAGGRQFRYIPALNDCPPWIEGLTDLVERQLRGWPTGNP | not soluble
16 | MGSDKIHHHHHHMERITILHTNDLHSHFENWPRIRRYLKTTRQQVMADGATVYTFDLGDHVDRVHPVSEATNGQQNIQLMNQIGYDGVTIGNNEGLGFVRAQLDHLYDHANFPVILGNLRIPDTHELPDWAIDHRLLTTAAGTRLLVLGLTAPYHLTYPLAGWQILDVQPTLAALLHRFAGQFDVCVLLSHLGLDVDRLLAKRFPQVTVIIGSHTHHLLPHGEHDHQSLLAAAGKFGRYIGKIELSITPDHQVKSAVASVTETATLPVADGDTAEITSLQDLGESILSEQRVANLPTAMEADPTGQPRLVREGLHAIAEYAGTQAAILNAGLFLQDLPSGVVNQNQLHQLLPHNMHVMTVTLSGYDLWRLVQEFELARLFLRRFPQKGMGFRGKIFGELNYLGLAYDAVTHQVTWRGEPLSPTRQYRIAMVDHYLFIPFFPTISIVGKNQILYDDLLREVFAQYLARHYPLT | not soluble
17 | GMIYSKVENFINENKQNAIFTEGASHENIGRIEENLQCDLPNSYKWFLEKYGAGGLFGVLVLGYNFDHASVVNRTNEYKEHYGLTDGLVVIEDVDYFAYCLDTNKMKDGECPVVEWDRVIGYQDTVADSFIEFFYNKIQEAKDDWDEDEDWDD | soluble
18 | MESLASLYKNHIATLQERTRDALARFKLDALLIHSGELFNVFLDDHPYPFKVNPQFKAWVPVTQVPNCWLLVDGVNKPKLWFYLPVDYWHNVEPLPTSFWTEDVEVIALPKADGIGSLLPAARGNIGYIGPVPERALQLGIEASNINPKGVIDYLHYYRSFKTEYELACMREAQKMAVNGHRAAEEAFRSGMSEFDINIAYLTATGHRDTDVPYSNIVALNEHAAVLHYTKLDHQAPEEMRSFLLDAGAEYNGYAADLTRTWSAKSDNDYAQLVKDVNDEQLALIATMKAGVSYVDYHIQFHQRIAKLLRKHQIITDMSEEAMVENDLTGPFMPHGIGHPLGLQVHDVAGFMQDDSGTHLAAPAKYPYLRCTRILQPGMVLTIEPGIYFIESLLAPWREGQFSKHFNWQKIEALKPFGGIRIEDNVVIHENNVENMTRDLKLA | soluble
